Data: paper PMC3189723

Biological target: ribosome nascent chain complex RNC_(1A9L) labeled with Cm on the nascent chain (1A9L 56 amb)
Experiment: FRET or BRET

- Kd: 0.73 nM
Substance: BODIPY-Fl labeled Signal Recognition Particle (SRP; protein component Ffh) (from UniProt P0AGD7 1-453) (complex)
